The record followed here is patent US8828380B2, “Method for the treatment of pulmonary disease and method of producing proteins of use therein” (The United States of America, as represented by the …, priority 2009, dated 2014).

Series [1] in a line: Non-enzymatic conversion of ADP-ribosylarginine to ornithine, HPLC and amino acid analysis. The format is physicochemical.
A further series deals with T1, arginase (Homo sapiens, UniProt P05089).
T1 sequence (P05089 1-322): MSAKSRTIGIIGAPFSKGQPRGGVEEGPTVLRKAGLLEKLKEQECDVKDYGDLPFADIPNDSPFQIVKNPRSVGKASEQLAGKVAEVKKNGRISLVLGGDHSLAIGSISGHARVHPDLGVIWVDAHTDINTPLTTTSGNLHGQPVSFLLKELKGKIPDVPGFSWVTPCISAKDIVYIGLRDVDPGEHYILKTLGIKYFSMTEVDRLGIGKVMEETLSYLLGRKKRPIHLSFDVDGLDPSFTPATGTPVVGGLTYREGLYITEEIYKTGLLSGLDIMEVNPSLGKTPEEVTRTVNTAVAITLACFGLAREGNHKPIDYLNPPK
The experiment in a line: Incubation with manganese-activated arginase, products by amino acid analysis and MS. Type of series: biochemical. The note with it: manganese-activated arginase 0.7 U, pH 9.5, 10 minutes, 37° C. The method, then:
Arginase, found predominantly in liver, catalyzes the hydrolysis of arginine to ornithine in the urea cycle. The enzyme has been reported to require free arginine (Jenkinson et al., Comp. Biochem. Physiol. B Biochem. Mol. Biol. 114:107-132, 1996). HNP-1 was tested as a potential substrate for arginase. HNP-1 (1.4 nmol), mono-ADP-ribosylated-HNP-1 (1 nmol), ADP-ribosylarginine (18 μM), and arginine (5 mM) were each incubated with manganese-activated arginase (0.7 U) at pH 9.5 in 200 μl for 10 minutes at 37° C.

The target of the next series is T2, ART1 (Mus musculus, UniProt Q60935).
T2 sequence (Q60935 23-290 limits assumed): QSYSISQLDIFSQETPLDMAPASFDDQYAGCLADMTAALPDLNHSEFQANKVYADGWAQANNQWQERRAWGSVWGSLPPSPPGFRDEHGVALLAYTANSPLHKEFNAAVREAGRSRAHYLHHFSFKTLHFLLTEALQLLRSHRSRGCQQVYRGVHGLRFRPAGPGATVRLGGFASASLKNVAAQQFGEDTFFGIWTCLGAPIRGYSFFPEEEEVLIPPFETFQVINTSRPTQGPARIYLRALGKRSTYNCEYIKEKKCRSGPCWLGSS
Kind of series: Substrate test for ART1.

Series [2] in a line: Incubation of HPLC-purified mono- and di-ADP-ribosyl-HNP-1 at pH 7 or 9, products analysed by HPLC/MS. Type of series: physicochemical. The procedure: HNP-1 was incubated overnight at 30° C. with 5 mM NAD in 150 μl of 50 mM potassium phosphate, pH 7.5 and ART1. Reactions were terminated by addition of guanidine HCl to a final concentration of 6 M. Products were separated by HPLC and analyzed by mass spectrometry (MS).
HNP-1 was reduced, cleaved by trypsin, and analyzed by reverse phase chromatography-mass spectrometry as described (Paone et al., Proc. Natl. Acad. Sci. USA 99:8231-8235, 2002), except that the reverse phase column was a Zorbax 300SB-C18, 2.1×50 mm, 3.5 micron, and the mass spectrometer was an Agilent model G1969 with a time of flight detector. Mass spectra were deconvoluted with Agilent software MassHunter version 2, and the fraction of each species was calculated from the areas of the deconvoluted peaks.
To verify that ART1 (or an enzymatic contaminant) was not required for ornithine formation, HPLC-purified mono- and di-modified HNP-1 were incubated for 24 hours at 37° C. at pH 7 or 9 and the reaction products were analyzed by HPLC (FIG. 4, Table 1). Di-ADP-ribosylated-HNP-1 degraded to mono-ADP-ribosylated-HNP-1-ornithine of 3940 molecular mass at pH 7 and the amount was greater at pH 9 (FIG. 4A-D). About 50% of di-ADP-ribosylated-HNP-1 degraded to mono-ADP-ribosylated-HNP-1-ornithine at pH 9, with ADP-ribosylated arginine 14 and ornithine at position 24 or ADP-ribosylated arginine 24 and ornithine at position 14.

Consider `NC(=NCCC[C@H](N)C(=O)O)N[C@H]1O[C@H](COP(=O)(O)OP(=O)(O)OC[C@H]2O[C@@H](n3cnc4c(N)ncnc43)[C@H](O)[C@@H]2O)[C@@H](O)[C@H]1O` [ADP-ribosylarginine], for which, in series [1] (6N HCl, 37° C., 24 hours), the “product of incubation in acid” value is listed as “Arginine was cleaved”. Besides, the “amount of ornithine generated” value in series [1] (incubation at pH 7 or pH 8) was “less than at pH 9”. For the same compound, the “maximal amount of ornithine, of initial ADP-ribosylarginine” value in series [1] (pH 9, 24 hours, 37° C., amino acid analysis without prior acid hydrolysis) is reported as 21%. Besides, the “ornithine formation by arginase (substrate or not)” value at arginase is “ornithine only in the reaction that contained free arginine”.
As for `N=C(N)NCCCCN` [agmatine], the “substrate for ART1” value on ART1 is listed as “served as substrates”.
As to `N=C(N)NCCC[C@H](N)C(=O)O` [arginine], the “ornithine formation after incubation with free ADP-ribose” value in series [1] (24 hours, 37° C., 20 mM potassium phosphate pH 9) is given as “No ornithine was identified”. The “ornithine formation by arginase (substrate or not)” value on arginase is reported as “ornithine only in the reaction that contained free arginine”. For the same compound, the “substrate for ART1” value on ART1 is given as “served as substrates”.
For the compound `NCCC[C@H](N)C(=O)O` [ornithine, Ornithine], the “substrate for ART1” value at ART1 is listed as “did not”.
Consider “ADPR-HNP: HNP-1 ADP-ribosylated on arginine 14”, for which, in series [2] (pH 7, time 0 h), the “percent of species ADPR-HNP at the end of the incubation” value is recorded as 100%, the “percent of species ADPR-HNP-Orn at the end of the incubation” value (shortened to “percent of species ADPR-HNP-Orn”) worked out at 0%, the “percent of species Di-ADPR-HNP at the end of the incubation” value (“percent of species Di-ADPR-HNP” for short) turned out to be 0% and the “percent of species Di-Orn-HNP at the end of the incubation” value (shortened to “percent of species Di-Orn-HNP”) came out at 0%. In series [2] (pH 7, time 0 h), the “percent of species HNP at the end of the incubation” value is 0% and the “percent of species HNP-Orn at the end of the incubation” value (shortened to “percent of species HNP-Orn”) turned out to be 0%. Moreover, in series [2] (pH 7, time 24 h), the “percent of species ADPR-HNP at the end of the incubation” value stood at 82 ± 13%, the “percent of species ADPR-HNP-Orn” value worked out at 0%, the “percent of species Di-ADPR-HNP” value stood at 0% and the “percent of species Di-Orn-HNP” value was found to be 0%. For the same compound, in series [2] (pH 7, time 24 h), the “percent of species HNP at the end of the incubation” value is given as 0% and the “percent of species HNP-Orn” value was 18 ± 13%. Further, in series [2] (pH 9, time 0 h), the “percent of species ADPR-HNP at the end of the incubation” value amounted to 100%, the “percent of species ADPR-HNP-Orn” value turned out to be 0%, the “percent of species Di-ADPR-HNP” value was found to be 0% and the “percent of species Di-Orn-HNP” value was found to be 0%. For the same compound, in series [2] (pH 9, time 0 h), the “percent of species HNP at the end of the incubation” value amounted to 0% and the “percent of species HNP-Orn” value is recorded as 0%. In series [2] (pH 9, time 24 h), the “percent of species ADPR-HNP at the end of the incubation” value turned out to be 61 ± 9%, the “percent of species ADPR-HNP-Orn” value stood at 0%, the “percent of species Di-ADPR-HNP” value is given as 0% and the “percent of species Di-Orn-HNP” value is 0%. Besides, in series [2] (pH 9, time 24 h), the “percent of species HNP at the end of the incubation” value is reported as 0% and the “percent of species HNP-Orn” value turned out to be 39 ± 9%. Further, the “ornithine formation by arginase (substrate or not)” value with arginase was “ornithine only in the reaction that contained free arginine”.
